Reference: patent US20120283184A1 (published 2012)

Columns and labels:
[1] = molecular target: T1, Flk-1-Fc (mouse vascular endothelial growth factor receptor-2 Fc chimera) (mouse, UniProt P35918 20-762); assay: radioactive equilibrium binding assay, % bound at 1 nM Flk-1-Fc
T1 construct: Bought from R&D Systems; also called mouse VEGFR-2-Fc; Fc part of the bought chimera not given
Procedure: (§1) To prepare ³⁵S-labeled binding proteins for analysis, mRNA was prepared as described above for RNA-protein fusion production but the linker ligation step was omitted. The mRNA was expressed using rabbit reticulocyte lysate translation kit (Ambion) in the presence of ³⁵S-labeled Met at 30° C. for 1 hour. Expressed protein was purified on M2-agarose Flag beads (Sigma) as described above. This procedure produced the encoded protein without the nucleic acid tail. In a direct binding assay, VEGF-R2-Fc fusions in concentrations ranging from 0 to 200 nM were added to a constant concentration of the purified protein (0.2 or 0.5 nM) and incubated at 30° C. for 1 hour in buffer B. The receptor-binder complexes were captured using Protein A magnetic beads for another 10 minutes at room temperature using a Kingfisher™ The beads were washed with six reaction volumes of buffer B. The protein was eluted from the beads with 100 μL of 0.1 M KOH. 50 μL of the reaction mixture and elution were dried onto a LumaPlate-96 (Packard) and the amount of ³⁵S on the plate was measured using a TopCount NXT instrument (Packard). The amount of fibronectin-based scaffold protein bound to the target was estimated as a percent of radioactivity eluted from Protein A magnetic beads compare to radioactivity in the reaction mixture. Nonspecific binding of fibronectin-based scaffold proteins to the beads was determined by measuring binding in the absence of KDR-Fc and represented less than 1-2% of the input. Specific binding was obtained through subtraction of nonspecific binding from total binding. Data was analyzed using the GraphPad Prizm software (GraphPad Software, Inc, San Diego, Calif.), fitted using a one site, non-linear binding equation.

[2] = molecular target: T2, human vascular endothelial growth factor receptor-2 Fc chimera (KDR-Fc) (human, UniProt P35968 20-764); assay: radioactive equilibrium binding, 1 nM KDR-Fc
T2 construct: range 1-764; Purchased from R&D Systems; also called hKDR; human VEGF-R2-Fc; not shown: human IgG1 Fc
Procedure: as §1

T2 sequence (P35968 20-764 limits assumed, change not shown, form in doubt): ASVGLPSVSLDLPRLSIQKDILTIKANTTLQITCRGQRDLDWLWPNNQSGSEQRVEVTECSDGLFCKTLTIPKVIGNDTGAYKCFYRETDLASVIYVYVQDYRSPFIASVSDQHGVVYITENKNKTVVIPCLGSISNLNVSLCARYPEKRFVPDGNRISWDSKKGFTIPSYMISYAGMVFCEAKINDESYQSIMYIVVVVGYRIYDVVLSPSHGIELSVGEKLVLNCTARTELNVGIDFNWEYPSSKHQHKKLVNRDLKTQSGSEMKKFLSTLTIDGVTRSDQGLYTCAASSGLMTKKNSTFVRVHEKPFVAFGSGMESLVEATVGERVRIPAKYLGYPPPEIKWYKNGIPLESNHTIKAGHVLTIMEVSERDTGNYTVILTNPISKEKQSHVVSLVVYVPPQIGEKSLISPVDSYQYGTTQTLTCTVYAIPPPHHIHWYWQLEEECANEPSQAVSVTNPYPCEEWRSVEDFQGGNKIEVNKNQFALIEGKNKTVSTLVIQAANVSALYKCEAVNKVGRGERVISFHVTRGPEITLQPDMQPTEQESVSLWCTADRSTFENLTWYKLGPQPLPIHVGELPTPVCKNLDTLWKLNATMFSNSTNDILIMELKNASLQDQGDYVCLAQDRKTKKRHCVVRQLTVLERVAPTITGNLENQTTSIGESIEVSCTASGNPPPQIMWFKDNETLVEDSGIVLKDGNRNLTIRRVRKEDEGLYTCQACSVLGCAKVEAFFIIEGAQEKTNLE
T1 sequence (P35918 20-762, change not shown): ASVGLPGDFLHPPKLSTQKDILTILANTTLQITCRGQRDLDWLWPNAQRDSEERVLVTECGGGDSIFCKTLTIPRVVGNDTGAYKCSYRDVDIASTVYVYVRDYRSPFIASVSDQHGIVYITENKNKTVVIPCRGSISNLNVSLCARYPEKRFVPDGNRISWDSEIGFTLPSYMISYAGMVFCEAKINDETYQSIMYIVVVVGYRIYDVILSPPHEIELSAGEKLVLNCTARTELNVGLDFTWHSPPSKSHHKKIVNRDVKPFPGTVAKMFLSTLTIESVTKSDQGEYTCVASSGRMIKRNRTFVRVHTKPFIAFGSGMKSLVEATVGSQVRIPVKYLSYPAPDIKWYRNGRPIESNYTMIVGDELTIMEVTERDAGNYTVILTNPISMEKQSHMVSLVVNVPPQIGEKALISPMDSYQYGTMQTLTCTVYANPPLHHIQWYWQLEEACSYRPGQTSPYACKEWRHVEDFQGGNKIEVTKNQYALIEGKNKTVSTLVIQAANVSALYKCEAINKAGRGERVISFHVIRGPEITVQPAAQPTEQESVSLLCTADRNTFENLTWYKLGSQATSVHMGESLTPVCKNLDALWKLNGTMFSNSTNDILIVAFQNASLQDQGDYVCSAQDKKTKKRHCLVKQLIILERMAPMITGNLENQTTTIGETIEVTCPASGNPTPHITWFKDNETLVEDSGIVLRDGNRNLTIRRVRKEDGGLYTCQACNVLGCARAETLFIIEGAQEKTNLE

Row | Binder | Binding to 1 nM Flk-1, % [1] [%] | Binding to 1 nM KDR, % [2] [%]
1 | B11 (designed binder, 10Fn3 clone, Del 1-8) EVVAATPTSLLISWRHPHFPTRYYRITYGETGGNSPVQEFTVPLQPPTATISGLKPGVDYTITGYAVTVERNGRELKTPISINYRT | 21 | 
2 | B12 (designed binder, 10Fn3 clone, Del 1-8) EVVAATPTSLLISWRHPHFPTRYYRITYGETGGNSPVQEFTVPLQPPTATISGLKPGVDYTITGYAVTVERNGRELRTPISINYRT | 21 | 
3 | F12 (designed binder, 10Fn3 clone, Del 1-8) EVVAATPTSLLISWRHPHFPTRYYRITYGETGGNSPVQEFTVPLQPPTATISGLKPGVDYTITGYAVTDGRNGHELMTPISINYRT | 1 | 
4 | 1′DelC5 PR4 (designed binder, in vitro translated) EVVAATPTSLLISWRHPHFPTRYYRITYGETGGNSPVQEFTVPLQPPTATISGLKPGVDYTITVYAVTLAQNDHEIMTPISINYRT |  | 11
5 | 1′DelC6 PR4 (designed binder, in vitro translated) EVVAATPTSLLISWRHPHFPTRYYRITYGETGGNSPVQEFTVPLQPPTATISGLKPGVDYTITVYAVTVAQNEHELLTPISINYRT |  | 12
6 | 1′DelD3 PR4 (designed binder, in vitro translated) EVVAATPTSLLISWRHPHFPTRYYRITYGETGGNSPVQEFTVPLQPPTATISGLKPGVDYTITVYAVTLAQNNHELITPISINYRT |  | 12
7 | 1′DelG9 PR4 (designed binder, in vitro translated) EVVAATPTSLLISWRHPHFPTRYYRITYGETGGNSPVQEFTVPLQPPTATISGLKPGVDYTITVYAVTVAQSDHELMTPISINYRT |  | 10
8 | 1′DelG11 PR4 (designed binder, in vitro translated) EVVAATPTSLLISWRHPHFPTRYYRITYGETGGNSPVQEFTVPLQPPTATISGLKPGVDYTITVYAVTLAQNGHVLITPISINYRT |  | 11
9 | 1′DelH7 PR4 (designed binder, in vitro translated) EVVAATPTSLLISWRHPHFPTRYYRITYGETGGNSPVQEFTVPLQPPTATISGLKPGVDYTITVYAVTVGQNDQELLTPISINYRT |  | 11
10 | 1′DelH9 PR4 (designed binder, in vitro translated) EVVAATPTSLLISWRHPHFPTRYYRITYGETGGNSPVQEFTVPLQPPTATISGLKPGVDYTITVYAVTVGQNDHELITPISINYRT |  | 10
11 | 2′DelB9 PR4 (designed binder, in vitro translated) EVVAATPTSLLISWRHPHFPTRYYRITYGETGGNSPVQEFTVPLQPPTATISGLKPGVDYTITVYAVTVGPTDHELLTPISINYRT |  | 11
12 | 2′DelB10 PR4 (designed binder, in vitro translated) EVVAATPTSLLISWRHPHFPTRYYRITYGETGGNSPVQEFTVPLQPPTATISGLKPGVDYTITVYAVTVTHNDHELLTPISINYRT |  | 11
13 | 2′DelB11 PR4 (designed binder, in vitro translated) EVVAATPTSLLISWRHPHFPTRYYRITYGETGGNSPVQEFTVPLQPPTATISGLKPGVDYTITVYAVTVGQNDHELMTPISINYRT |  | 11
14 | 3A8 PR3 (designed binder, in vitro translated) EVVAATPTSLLISWRHPHFPTRYYRITYGETGGNSPVQEFTVPLQPPTATISGLKPGVDYTITVYAVTEAHHGHELMIPISINYRT |  | 12
15 | 3C5 PR3 (designed binder, in vitro translated) EVVAATPTSLLISWRHPHFPTRYYRITYGETGGNSPVQEFTVPLQPPTATISGLKPGVDYTITVYAVTGDHNDRELMTPISINYRT |  | 12
16 | 3D4 PR3 (designed binder, in vitro translated) EVVAATPTSLLISWRHPHFPTRYYRITYGETGGNSPVQEFTVPLQPPTATISGLKPGVDYTITVYAVTVGWNDHELITPISINYRT |  | 10
17 | 3D11 PR3 (designed binder, in vitro translated) EVVAATPTSLLISWRHPHFPTRYYRITYGETGGNSPVQEFTVPLQPPTATISGLKPGVDYTITVYAVTLGQENQELITPISINYRT |  | 10
18 | 3E6 PR3 (designed binder, in vitro translated) EVVAATPTSLLISWRHPHFPTRYYRITYGETGGNSPVQEFTVPLQPPTATISGLKPGVDYTITVYAVTVPQNGHELITMISINYRT |  | 12

Row | Binder | Binding to 1 nM Flk-1, % [1] [%] | Binding to 1 nM KDR, % [2] [%]
19 | 3F4 PR3 (designed binder, in vitro translated) EVVAATPTSLLISWRHPHFPTRYYRITYGETGGNSPVQEFTVPLQPPTATISGLKPGVDYTITVYAVTMGYEDHELITPISINYRT |  | 10
20 | 3F5 PR3 (designed binder, in vitro translated) EVVAATPTSLLISWRHPHFPTRYYRITYGETGGNSPVQEFTVPLQPPTATISGLKPGVDYTITVYAVTVAYNEHELYTPISINYRT |  | 11
21 | 3F11 PR3 (designed binder, in vitro translated) EVVAATPTSLLISWRHPHFPTRYYRITYGETGGNSPVQEFTVPLQPPTATISGLKPGVDYTITVYAVTVGLTDHVLLTPISINYRT |  | 10
22 | 3G10 PR3 (designed binder, in vitro translated) EVVAATPTSLLISWRHPHFPTRYYRITYGETGGNSPVQEFTVPLQPPTATISGLKPGVDYTITVYAVTVVHNGHEILTPISINYRT |  | 10
23 | 3H9 PR3 (designed binder, in vitro translated) EVVAATPTSLLISWRHPHFPTRYYRITYGETGGNSPVQEFTVPLQPPTATISGLKPGVDYTITVYAVTVSQQNHELLTPISINYRT |  | 11
24 | 3′D4 PR4 (designed binder, in vitro translated) EVVAATPTSLLISWRHPHFPTRYYRITYGETGGNSPVQEFTVPLQPPTATISGLKPGVDYTITVYAVTLAHNDRELITPISINYRT |  | 12
25 | 3′E4 PR4 (designed binder, in vitro translated) EVVAATPTSLLISWRHPHFPTRYYRITYGETGGNSPVQEFTVPLQPPTATISGLKPGVDYTITVYAVTVGPNDRELIVPISINYRT |  | 12
26 | 3′E8 PR4 (designed binder, in vitro translated) EVVAATPTSLLISWRHPHFPTRYYRITYGETGGNSPVQEFTVPLQPPTATISGLKPGVDYTITVYAVTVAQNDRQLFTPISINYRT |  | 12
27 | 4A4 PR3 (designed binder, in vitro translated) EVVAATPTSLLISWRHPHFPTRYYRITYGETGGNSPVQEFTVPLQPPTATISGLKPGVDYTITVYAVTVAQNDHELFTPISINYRT |  | 10
28 | 4C4 PR3 (designed binder, in vitro translated) EVVAATPTSLLISWRHPHFPTRYYRITYGETGGNSPVQEFTVPLQPPTATISGLKPGVDYTITVYAVTVAQDDHELFTPISINYRT |  | 10
29 | 4′B6 PR4 (designed binder, in vitro translated) EVVAATPTSLLISWRHPHFPTRYYRITYGETGGNSPVQEFTVPLQPPTATISGLKPGVDYTITVYAVTLAQNDHELITPISINYRT |  | 11
30 | 4′G8 PR4 (designed binder, in vitro translated) EVVAATPTSLLISWRHPHFPTRYYRITYGETGGNSPVQEFTVPLQPPTATISGLKPGVDYTITVYAVTVAQNGHELLTPISINYRT |  | 13
31 | 2H10 PR3 (designed binder, in vitro translated) VSDVPRDLEVVAATPTSLLISWRHPHFPTRYYRITYGETGGNSPVQEFTVPLQPPTATISGLKPGVDYTITVYAVTLAPSARELMTPISINYRT |  | 10
32 | 2H12 PR3 (designed binder, in vitro translated) VSDVPRDLEVVAATPTSLLISWRHPHFPTRYYRITYGETGGNSPVQEFTVPLQPPTATISGLKPGVDYTITVYAVTEGYQNHELSVPISINYRT |  | 10
33 | 2′A1-PR4 (designed binder, in vitro translated) VSDVPRDLEVVAATPTSLLISWRHPHFPTRYYRITYGETGGNSPVQEFTVPLQPPTATISGLKPGVDYTITVYAVTSGHNDHMLMIPISINYRT |  | 11
34 | 2′D5-PR4 (designed binder, in vitro translated) VSDVPRDLEVVAATPTSLLISWRHPHFPTRYYRITYGETGGNSPVQEFTVPLQPPTATISGLKPGVDYTITVYAVTVAWNDHMLMTPISINYRT |  | 11
35 | 2′G11-PR4 (designed binder, in vitro translated) VSDVPRDLEVVAATPTSLLISWRHPHFPTRYYRITYGETGGNSPVQEFTVPLQPPTATISGLKPGVDYTITVYAVTGGQMNRVLMTPISINYRT |  | 12
